Square brackets hold non-standard residues; d marks the D form. GABA = NCCCC(=O)O
How the values were obtained:
Assay in all cases: peptide library pulldown on immobilized Nb, LC-MS of supernatant; ratio vs GFP-Nb control (1 = not captured, 0 = captured)
[1] = molecular target: T1, BC2T Q12V library peptide (human)
T1 peptide: Ac-PDRKAAVSHWQV-NH2
Description: (§1) In total, 12 different BC2T libraries displaying all 20 proteinogenic amino acids in one single position of the peptide were used in immunoprecipitation experiments. […] The direct comparison with the GFP-Nb made it possible to determine the quantitative degree of peptide capture without the need of labeled standards. […] The more peptide was captured the more the value approximates 0. It was not possible to discriminate between isoleucine (I) and leucine (L) peptide versions since these peptides are isobaric.
(§2) To investigate the binding specificity of the BC2T and derived mutants peptide libraries for each amino acid position of the sequence […] (SEQ ID NO:4) were synthesized with acetyl and amide groups located at the N-termini or C-termini respectively (Intavis). […] Incubations were performed in 300 μl PBS/0.01% CHAPS for 1 h on a HulaMixer (Life Technologies). Subsequent to a centrifugation step 10 μl supernatant were analyzed in a LC-MS procedure. Peptides were separated using an UltiMate3000 RSLCnano System (Thermo Scientific), composed of a C18 PepMap100μ-Precolumn (300 μm×5 mm; particle size: 5 μm; pore size: 100 Å—Thermo Scientific) and a C18 analytical column (Acclaim Rapid Separation LC (RSLC) Column: 150 mm×5 mm; particle size: 2.2 μm; pore size: 100 Å—Thermo Scientific). A step gradient was applied starting at 8% and ending after 20 min at 30% eluent B (80% acetonitrile, 20% H₂O, 0.1% formic acid).

[2] = molecular target: T2, BC2T Q11V library peptide (human)
T2 peptide: Ac-PDRKAAVSHWVQ-NH2
Description: as §1, §2

[3] = molecular target: T3, BC2T S8N library peptide (human)
T3 construct: also called BC2TS8X: N
T3 peptide: Ac-PDRKAAVNHWQQ-NH2
Description: as §1, §2

[4] = molecular target: T4, BC2T H9G library peptide (human)
T4 peptide: Ac-PDRKAAVSGWQQ-NH2
Description: as §1, §2

[5] = molecular target: T5, BC2T Q11W library peptide (human)
T5 peptide: Ac-PDRKAAVSHWWQ-NH2
Description: as §1, §2

[6] = molecular target: T6, BC2T S8G library peptide (human)
T6 construct: also called BC2TS8X: G
T6 peptide: Ac-PDRKAAVGHWQQ-NH2
Description: as §1, §2

[7] = molecular target: T7, BC2T S8D library peptide (human)
T7 construct: also called BC2TS8X: D
T7 peptide: Ac-PDRKAAVDHWQQ-NH2
Description: as §1, §2

[8] = molecular target: T8, BC2T W10Q library peptide (human)
T8 construct: also called BC2TW10X: Q
T8 peptide: Ac-PDRKAAVSHQQQ-NH2
Description: as §1, §2

[9] = molecular target: T9, BC2T W10(I/L) library peptide, version 1 (N-terminal acetyl, C-terminal amide)
T9 construct: Ile and Leu versions are isobaric; two versions resolved but not assigned; also called BC2TW10X: I/L1
Description: as §1, §2

[10] = molecular target: T10, BC2T Q11(I/L) library peptide, version 2 (N-terminal acetyl, C-terminal amide)
T10 construct: Ile and Leu versions are isobaric; two versions resolved but not assigned; also called I/L2
Description: as §1, §2

[11] = molecular target: T11, BC2T H9D library peptide (human)
T11 peptide: Ac-PDRKAAVSDWQQ-NH2
Description: as §1, §2

[12] = molecular target: T12, BC2T Q11R library peptide (human)
T12 peptide: Ac-PDRKAAVSHWRQ-NH2
Description: as §1, §2

[13] = molecular target: T13, BC2T Q12M library peptide (human)
T13 peptide: Ac-PDRKAAVSHWQM-NH2
Description: as §1, §2

[14] = molecular target: T14, BC2T W10S library peptide (human)
T14 construct: also called BC2TW10X: S
T14 peptide: Ac-PDRKAAVSHSQQ-NH2
Description: as §1, §2

[15] = molecular target: T15, BC2T Q12(I/L) library peptide, version 1 (N-terminal acetyl, C-terminal amide)
T15 construct: Ile and Leu versions are isobaric; two versions resolved but not assigned; also called I/L1
Description: as §1, §2

[16] = molecular target: T16, BC2T H9N library peptide (human)
T16 peptide: Ac-PDRKAAVSNWQQ-NH2
Description: as §1, §2

[17] = molecular target: T17, BC2T H9A library peptide (human)
T17 peptide: Ac-PDRKAAVSAWQQ-NH2
Description: as §1, §2

[18] = molecular target: T18, BC2T Q12C* library peptide (human, SMILES …)
T18 construct: also called C(Abu)
T18 peptide: Ac-PDRKAAVSHWQ[GABA]-NH2
Description: as §1, §2

[19] = molecular target: T19, BC2T Q11A library peptide (human)
T19 peptide: Ac-PDRKAAVSHWAQ-NH2
Description: as §1, §2

ratio [1]: 0.1 | ratio [2]: 0.2 | ratio [3]: 0.5 | ratio [4]: 0.7 | ratio [5]: 0.1 | ratio [6]: 0.8 | ratio [7]: 1 | ratio [8]: 1.2 | ratio [9]: 1 | ratio [10]: 0.4 | ratio [11]: 0.4 | ratio [12]: 0.1 | ratio [13]: 0.2 | ratio [14]: 1.2 | ratio [15]: 0.1 | ratio [16]: 0.2 | ratio [17]: 0.3 | ratio [18]: 0.1 | ratio [19]: 0.3
B1: BC2-Nb(R106E) (VHH)
VHH: QVQLVESGGGLVQPGGSLTLSCTASGFTLDHYDIGWFRQAPGKEREGVSCINNSDDDTYYADSVKGRFTIFMDNAKDTVYLQMNSLKPEDTAIYYCAEARGCKRGEYEYDFWGQGTQVTVSS
notes: Headlock mutant; immobilized on beads in the library pulldown

— patent publication US20170137467A1 (CHROMOTEK, published 2017)
